Measurements published in article PMC3561395.
Several values for one entry are separate records, joined by “and”; a condition that tells them apart may be missing. Equal entries are not always repeated.

Molecular target: cytochrome c 552 from Thermus thermophilus HB8 (Thermus thermophilus HB8) (UniProt P04164)
Sequence of UniProt P04164 (P04164 whole entry): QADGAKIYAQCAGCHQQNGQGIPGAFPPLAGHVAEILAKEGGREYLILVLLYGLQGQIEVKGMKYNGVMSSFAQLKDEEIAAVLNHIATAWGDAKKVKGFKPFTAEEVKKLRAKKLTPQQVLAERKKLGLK

Row | Substance | forward rate constant kF of electron transfer with c 552, 4°C, ionic strength 12 mM [M⁻¹ s⁻¹] | reverse rate constant kR of electron transfer with c 552, 4°C, ionic strength 12 mM
1 | recombinant cytochrome c 550 C-terminal domain (c 550[C]) (domain or fragment) | 7e+07 | 7e+06 M⁻¹ s⁻¹ and 3e+06 M⁻¹ s⁻¹
2 | recombinant cytochrome c 550 N-terminal domain (c 550[N]) (domain or fragment) | 1e+08 | –
